The record followed here is patent publication US20110021611A1.

For the test, the target named is CD81 on Huh7.5 cells (human) (UniProt P60033). Kind of test: cell-based or functional assay.
UniProt P60033, sequence (P60033 whole entry): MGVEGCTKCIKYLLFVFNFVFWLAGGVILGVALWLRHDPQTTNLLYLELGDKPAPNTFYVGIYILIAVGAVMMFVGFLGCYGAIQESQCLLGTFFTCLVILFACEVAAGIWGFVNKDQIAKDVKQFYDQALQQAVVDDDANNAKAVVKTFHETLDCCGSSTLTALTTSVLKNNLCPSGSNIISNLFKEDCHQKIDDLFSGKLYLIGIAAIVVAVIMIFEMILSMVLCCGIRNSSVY

For “anti-CD81 (JS-81, BD Biosciences, Pharmingen) (antibody)”, the inhibition of infection of Huh7.5 cells with SA13/JFH1C3405G-A3696G virus (FFU count) turned out to be 90 % inhibition.
